In series [1] the target is T1, POU4F1-s (UniProt Q01851 85-419).
T1 sequence: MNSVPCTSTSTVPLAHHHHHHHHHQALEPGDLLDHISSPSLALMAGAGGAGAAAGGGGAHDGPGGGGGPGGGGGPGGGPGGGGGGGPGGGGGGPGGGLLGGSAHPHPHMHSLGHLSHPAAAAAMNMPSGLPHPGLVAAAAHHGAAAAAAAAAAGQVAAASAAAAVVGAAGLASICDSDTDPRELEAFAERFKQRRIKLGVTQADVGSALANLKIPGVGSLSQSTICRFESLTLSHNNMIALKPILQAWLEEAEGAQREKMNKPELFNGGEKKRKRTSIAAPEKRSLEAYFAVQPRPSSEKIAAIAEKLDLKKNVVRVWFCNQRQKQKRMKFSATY
The series is described as follows: competition EMSA. To be noted: unlabeled, vs 32P-Probe 2; strongest competitor; 10 mM Tris-Cl pH 7.9, 100 mM KCl, 5 mM MgCl2, 1 mM EDTA, 1 mM DTT, 0.5 mM PMSF, 5% glycerol, 1 ug poly(dI-dC), on ice 30 min; 5% polyacrylamide gel. (In general: Mobility shift assays separate free from complexed probe on a gel.)

In a further series the target is T2, POU4F3 (UniProt Q15319 1-338).
T2 sequence: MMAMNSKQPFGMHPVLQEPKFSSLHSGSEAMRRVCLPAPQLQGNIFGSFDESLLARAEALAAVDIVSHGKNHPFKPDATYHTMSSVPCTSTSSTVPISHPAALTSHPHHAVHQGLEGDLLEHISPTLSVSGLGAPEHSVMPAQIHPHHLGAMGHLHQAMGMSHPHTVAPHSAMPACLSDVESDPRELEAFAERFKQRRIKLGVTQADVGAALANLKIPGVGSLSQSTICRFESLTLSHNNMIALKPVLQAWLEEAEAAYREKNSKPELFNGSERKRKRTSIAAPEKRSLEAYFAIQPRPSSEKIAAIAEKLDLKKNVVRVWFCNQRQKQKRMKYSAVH
The series is described as follows: EMSA; 10 mM Tris-Cl pH 7.9, 100 mM KCl, 5 mM MgCl2, 1 mM EDTA, 1 mM DTT, 0.5 mM PMSF, 5% glycerol, 1 ug poly(dI-dC), on ice 30 min; 5% polyacrylamide gel. To be noted: protein: ivt.

The target in another series is T3, POU4F2-s (UniProt Q12837 98-409).
T3 sequence: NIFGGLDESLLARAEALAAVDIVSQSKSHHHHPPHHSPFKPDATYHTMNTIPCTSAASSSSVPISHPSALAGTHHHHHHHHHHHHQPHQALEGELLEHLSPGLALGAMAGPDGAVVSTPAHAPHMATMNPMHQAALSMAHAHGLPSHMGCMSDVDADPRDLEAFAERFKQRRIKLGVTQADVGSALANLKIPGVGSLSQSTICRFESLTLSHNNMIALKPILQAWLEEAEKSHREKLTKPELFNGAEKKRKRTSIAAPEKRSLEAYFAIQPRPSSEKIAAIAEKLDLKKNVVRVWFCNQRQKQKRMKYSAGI
Described as above. To be noted: protein: ivt.

Another series has as its target T4, POU4F2-l (UniProt Q12837 1-409).
T4 sequence: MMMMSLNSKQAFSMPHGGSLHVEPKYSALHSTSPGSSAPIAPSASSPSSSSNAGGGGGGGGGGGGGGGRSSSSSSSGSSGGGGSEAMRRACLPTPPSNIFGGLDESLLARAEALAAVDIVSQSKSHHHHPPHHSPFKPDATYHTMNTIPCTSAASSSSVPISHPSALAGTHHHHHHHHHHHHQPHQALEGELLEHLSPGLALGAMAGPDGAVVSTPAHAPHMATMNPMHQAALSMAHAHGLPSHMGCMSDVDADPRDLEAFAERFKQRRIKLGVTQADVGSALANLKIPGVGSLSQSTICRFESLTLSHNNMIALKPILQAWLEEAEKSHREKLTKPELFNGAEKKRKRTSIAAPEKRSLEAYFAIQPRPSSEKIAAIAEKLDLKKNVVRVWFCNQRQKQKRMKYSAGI
The series is described as above. To be noted: protein: ivt.

The target of a further series is T5, POU4F1-l (UniProt Q01851 1-419).
T5 sequence: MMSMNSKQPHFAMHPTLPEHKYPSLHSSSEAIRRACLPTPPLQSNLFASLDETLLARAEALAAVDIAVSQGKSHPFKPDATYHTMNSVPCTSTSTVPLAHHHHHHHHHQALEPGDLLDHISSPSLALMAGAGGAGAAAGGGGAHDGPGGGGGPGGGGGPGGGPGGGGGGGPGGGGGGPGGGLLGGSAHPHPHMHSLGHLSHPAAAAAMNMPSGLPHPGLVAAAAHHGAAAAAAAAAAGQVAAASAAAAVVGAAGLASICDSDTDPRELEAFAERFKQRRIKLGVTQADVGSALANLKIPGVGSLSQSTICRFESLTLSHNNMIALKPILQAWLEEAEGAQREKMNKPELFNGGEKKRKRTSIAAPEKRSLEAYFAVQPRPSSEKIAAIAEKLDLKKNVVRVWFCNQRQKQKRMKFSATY
The description is as above. To be noted: protein: ivt.

In series [2] the target is T1, POU4F1-s. Described as above. To be noted: protein: ivt; label: 32P fill-in; overhangs filled in by Klenow.
Where [3] appears, read: overhangs filled in by Klenow when labeled.
The mark [4] stands for this setting: label: 32P fill-in, overhangs filled in by Klenow.

The molecule POU4F1 consensus site competitor registered a binding signal (relative binding strength) with POU4F1-s [1] of 1000.

B1: Probe 2 (Site 2) (dsDNA)
DNA 1: AGGGTTTTAATTAACTATTCAGTG
DNA 2: CACTGAATAGTTAATTAAAACCCT
B1: the binding result with POU4F3 (setting [3]), with POU4F2-s (setting [3]) and with POU4F2-l (setting [3]) was “binds” throughout.

B2: Probe 2m (dsDNA)
DNA 1: AGGGTTTTAAGGCCCTATTCAGTG
DNA 2: CACTGAATAGGGCCTTAAAACCCT
B2: the binding result in the series with POU4F1-l (setting [3]), with POU4F3 (setting [3]), in the series with POU4F2-s (setting [3]) and in the series with POU4F2-l (setting [3]) was “no binding” in each case.

B3: Probe 6m (dsDNA)
DNA 1: AGAAATCCTTAGGCCTTGACTTTG
DNA 2: CAAAGTCAAGGCCTAAGGATTTCT
Consider B3, for which the binding result in the series with POU4F1-l (setting [4]), with POU4F3 (setting [4]), with POU4F2-s (setting [4]), with POU4F2-l (setting [4]) and with POU4F1-s [2] was “no binding” each time.

B4: Probe 1m (dsDNA)
DNA 1: AGCTCACGGCCTGAGTTAACAAAG
DNA 2: CTTTGTTAACTCAGGCCGTGAGCT
For B4, the binding result with POU4F1-l (setting [4]), in the series with POU4F3 (setting [4]), with POU4F2-s (setting [4]), with POU4F2-l (setting [4]) and with POU4F1-s [2] was “no binding” throughout.

The values above are taken from article PMC3692409, “RIT2, a neuron-specific small guanosine triphosphatase, is expressed in retinal neuronal cells and its promoter is modulated by the POU4 transcription factors”.
